Results on 3 substances are retold here after PMC3364340.

For experiment [1], the target named is TrkA, on human TF1 erythroleukemia cells (human (endogenous in TF1)) (UniProt P04629).
The target in experiment [2] is p75NTR, endogenous in rat primary hippocampal neurons (rat (endogenous in rat hippocampal neurons)) (UniProt P07174).
Sequence of UniProt P07174 (P07174 30-425): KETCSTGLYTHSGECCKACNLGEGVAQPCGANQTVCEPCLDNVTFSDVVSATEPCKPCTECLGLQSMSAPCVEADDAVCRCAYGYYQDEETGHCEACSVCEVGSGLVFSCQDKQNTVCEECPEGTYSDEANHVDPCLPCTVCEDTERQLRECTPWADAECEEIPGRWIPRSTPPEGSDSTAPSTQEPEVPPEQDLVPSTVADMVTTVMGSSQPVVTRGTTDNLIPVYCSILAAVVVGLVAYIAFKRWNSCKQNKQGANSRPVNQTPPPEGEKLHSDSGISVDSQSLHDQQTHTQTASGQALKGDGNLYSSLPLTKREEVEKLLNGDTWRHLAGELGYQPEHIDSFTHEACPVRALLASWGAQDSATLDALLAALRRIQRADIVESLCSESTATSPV

Sequence of UniProt P04629 (P04629 33-796): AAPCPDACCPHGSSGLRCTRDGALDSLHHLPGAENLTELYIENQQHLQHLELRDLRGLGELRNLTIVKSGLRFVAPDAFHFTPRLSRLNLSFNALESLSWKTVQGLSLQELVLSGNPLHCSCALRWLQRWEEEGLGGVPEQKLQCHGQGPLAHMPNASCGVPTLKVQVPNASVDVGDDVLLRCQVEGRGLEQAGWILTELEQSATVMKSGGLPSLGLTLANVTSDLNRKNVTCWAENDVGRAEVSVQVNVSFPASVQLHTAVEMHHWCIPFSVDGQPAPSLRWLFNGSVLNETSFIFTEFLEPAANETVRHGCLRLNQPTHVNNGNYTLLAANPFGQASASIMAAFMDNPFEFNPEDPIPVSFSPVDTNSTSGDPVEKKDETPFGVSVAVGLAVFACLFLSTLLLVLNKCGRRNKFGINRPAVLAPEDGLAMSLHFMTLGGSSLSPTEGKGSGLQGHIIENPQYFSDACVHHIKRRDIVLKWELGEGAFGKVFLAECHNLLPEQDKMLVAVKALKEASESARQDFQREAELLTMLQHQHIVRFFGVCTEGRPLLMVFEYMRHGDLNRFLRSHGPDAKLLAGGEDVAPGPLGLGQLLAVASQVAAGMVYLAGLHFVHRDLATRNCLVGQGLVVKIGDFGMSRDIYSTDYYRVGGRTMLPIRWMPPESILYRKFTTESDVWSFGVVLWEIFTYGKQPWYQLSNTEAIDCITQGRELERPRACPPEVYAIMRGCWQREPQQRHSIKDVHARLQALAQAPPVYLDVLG

For the substance “hNGFP61S, human NGF tagged with the single-residue epitope P61S (ligand)”, in experiment [1], the proliferative index, proliferation of human TF1 cells expressing TrkA worked out at 1.68 ng/mL.

On to “hNGFP61S/R100E, double mutant of human NGF ("painless" hNGF) (ligand)”, for which the c-jun Ser63 phosphorylation in hippocampal neurons (Western blot, site-specific anti-phospho c-jun antibody), reduction with respect to hNGF or hNGFP61S in experiment [2] came out at 30%. Moreover, the proliferative index, proliferation of human TF1 cells expressing TrkA in experiment [1] worked out at 1.89 ng/mL.

The substance “hNGFR100E, human NGF mutant R100E (from UniProt P01138 122-241) (ligand)” showed a c-jun Ser63 phosphorylation in hippocampal neurons (Western blot, site-specific anti-phospho c-jun antibody), reduction with respect to hNGF or hNGFP61S in experiment [2] of 30%. The substance also gave a proliferative index, proliferation of human TF1 cells expressing TrkA in experiment [1] of 1.28 ng/mL.
